US20120214173A1, “Methods of Identifying Modulators of an Ehd Polypeptide” (priority 2007, published 2012)
Entries after “also recorded” stand apart in the source; their conditions may differ. Values belong to the molecule of their own block, whether it stands above or below them.

Columns and labels:
[1] = target: T1, isolated EH-domain of EHD2 (mouse, UniProt Q8BH64 443-543, limits assumed); assay: ITC at 10 °C, 100 mM HEPES pH 7.5, 50 mM NaCl, 200 µM CaCl2; peptide against the EH-domain of EHD2
T1 construct: domain: EH-domain; ITC buffer contained 200 µM CaCl2
T1 sequence (looked up): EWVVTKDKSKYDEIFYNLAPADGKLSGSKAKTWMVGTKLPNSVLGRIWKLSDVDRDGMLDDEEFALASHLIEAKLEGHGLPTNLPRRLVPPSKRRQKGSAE

EHD2 = target: T2, EHD2 (Mus musculus, UniProt Q8BH64); assay: Multiple turnover ATPase assay (nucleotide hydrolysis by HPLC) with or without Folch liposomes; assay type: biochemical; conditions: presence of Folch liposomes
T2 construct: Mouse EHD2 full-length protein and all mutants were expressed as N-terminal His-fusions followed by a PreScission cleavage site; His (N, cleaved yes); made in house; host or cells: Escherichia coli BL21 DE3 Rosetta
T2 sequence (Q8BH64 1-543): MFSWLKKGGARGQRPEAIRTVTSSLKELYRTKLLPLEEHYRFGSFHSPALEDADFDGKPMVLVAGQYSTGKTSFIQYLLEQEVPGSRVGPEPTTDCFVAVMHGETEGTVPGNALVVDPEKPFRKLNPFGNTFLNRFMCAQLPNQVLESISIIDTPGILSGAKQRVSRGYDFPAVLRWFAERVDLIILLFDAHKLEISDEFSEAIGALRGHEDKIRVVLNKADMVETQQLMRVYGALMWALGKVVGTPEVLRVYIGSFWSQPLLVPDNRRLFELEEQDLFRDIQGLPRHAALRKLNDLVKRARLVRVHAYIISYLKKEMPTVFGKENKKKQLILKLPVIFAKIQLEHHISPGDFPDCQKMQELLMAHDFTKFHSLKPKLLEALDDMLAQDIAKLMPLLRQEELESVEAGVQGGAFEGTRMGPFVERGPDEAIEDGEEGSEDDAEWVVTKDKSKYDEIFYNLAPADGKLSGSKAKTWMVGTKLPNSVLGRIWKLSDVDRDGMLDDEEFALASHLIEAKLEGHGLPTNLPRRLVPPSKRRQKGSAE
Description: (§1) Amino acid numbering corresponds to mouse EHD2. b, EHD2 binds to adenine nucleotides, as determined by ITC. For clarity, ΔΔH=ΔHn−ΔH1 is plotted. […] Images were acquired close to the basal cell surface. f, Nucleotide hydrolysis was measured by HPLC in the absence (empty symbols) or presence of Folch liposomes (filled symbols). Data represent mean and standard deviation for two (intrinisic reactions) or three (stimulated reactions) independent experiments.
ITC measurements were performed at 10° C. in 20 mM HEPES (pH 7.5), 300 mM NaCl, 2 mM MgCl2. Liposome binding assays were performed as described previously (www.endocytosis.org). Multiple turnover ATPase assays were performed in 20 mM HEPES (pH 7.5), 135 mM NaCl, 15 mM KCl, 1 mM MgCl2 at 30° C. with 10 μM EHD2 (or mutants) as enzyme and 100 μM ATP as substrate, in the absence or presence of 1 mg/ml Folch liposomes (Sigma-Aldrich).
(§2) Reactions were started by the addition of the protein to the final reaction mix and nucleotide hydrolysis was followed using standard HPLC measurement^27. Initial rates were determined by applying a linear fit to data points up to 40% nucleotide hydrolysis. For electron microscopic studies, 2.5 μM EHD2 in 20 mM HEPES (pH 7.5), 150 mM NaCl, 1 mM MgCl2 was incubated for 15 min at 25° C. in the presence of 1 mM nucleotide and 0.05 mg/ml (final concentration) of the indicated liposomes. Samples were spotted on carbon-coated copper grids (Canemco and Marivac) and negatively stained with 2% uranyl acetate.
We next monitored the effect of membrane-binding on the ATPase activity of. EHD2 under multiple-turnover conditions (10-fold excess of ATP over EHD2), in the presence and absence of Folch liposoines (FIG. 1f). The intrinsic/background ATPase activity is extremely slow (kobs=0.7 h^−1) but is stimulated 8-fold in the presence of Folch or PS liposomes (kobs=5.6 h^−1).

[2] = target: the molecule itself; assay: negative stain EM on PS liposomes
HeLa cells = assay: Over-expression of EGFP-tagged EHD2 and mutants in HeLa cells (confocal / live imaging); assay type: cell-based
Description: as §1
Nucleotide hydrolysis was measured as described in FIG. 1f. In vitro tubulation activity of PS liposomes was analysed as described in FIG. 1d. f, EGFP-tagged mutants were over-expressed in HeLa cells. […] For each construct, three independent experiments with ≈50 cells/experiments were analysed.
Ultracentrifugation. Sedimentation velocity experiments were performed in a Beckman Optima XLA ultracentrifuge, using an An-60Ti rotor. Centrifugation was at 50,000 rev×min and 5° C. at an EHD2 concentration of 15 μM, with scans as fast as possible (˜1.5 min intervals). The data were analysed using DCDT+ v.2^44,45, with the partial specific volume for the protein (from the amino acid composition) and solvent density and viscosity calculated using Sednterp^46. Selected scans (at equal, ˜15 min intervals), and of g(s20,w) (the amount of material sedimenting between s20,w and (s20,w+δs)) and also the residuals for fitting the data with DCDT+, were plotted with the program profit v.5.6.7 (Quantum soft, Switzerland). Cell biology. N-terminal EGFP-tagged EHD2 and all mutants were over-expressed in HeLa cells from the pEGFP-C3 vector (Clontech). HeLa cells were grown as per ECACC guidelines with 10% fetal bovine serum and transfected using Genejuice (Novagen) for transient protein expression. 24 h after transfection, cells were fixed for 10 min at 37° C. in 3% paraformaldehyde and mounted. All confocal images were taken sequentially using a BioRad Radiance system and LaserSharp software (Biorad). For real-time microscopy, transfected cells on glass-bottom Petri dishes (WillCo Wells BV, Amsterdam) were washed with 25 mM HEPES (pH 7.5), 125 mM NaCl, 5 mM KCl, 10 mM D-glucose, 1 mM MgCl2, 2 mM CaCl), and epifluorescence images were taken using an Olympus IX70 microscope (Southhall, UK) and Argon laser (Melles Griot, Carlsbad, Calif.) with a Princeton instruments (Trenton, N.J.) cooled I-PentaMAX camera with MetaMorph software (Universal imaging).
EHD2 wild-type was over-expressed in HeLa cells for 24 h and imaged by EPI-fluorescence for approximately 30 min.
EHD2 T94A was over-expressed in HeLa cells for 24 h and imaged by EPI-fluorescence for approximately 30 min. […] EHD2 I157Q was over-expressed in HeLa cells for 24 h and imaged by EPI-fluorescence for approximately 30 min.

[3] = Negative stain EM of liposome tubulation/oligomerisation; conditions: 2.5 μM protein, PS liposomes
Description: as §1
EHD2 was incubated with the indicated liposomes in the presence and absence of nucleotides and analysed by EM as described in Methods. a, EHD2 deformed PS liposomes into tubular networks, here in the presence of ATP-γ-S. b, Enlarged views of the indicated area in a. Note the presence of regularly spaced EHD2 rings (some are indicated with arrows). This even spacing may be due to the curvature stress generated by an EHD2 ring along the axis of the lipid tubule which might disfavour binding of the next ring in the direct vicinity (see below). c, Some of the lipid tubules (especially at higher protein concentration) were tightly packed with EHD2 oligomeric rings. d,e In the presence of ADP and in the absence of nucleotide (f,g), EHD2 also tubulated PS liposomes and formed ring-like structures around the tubules. e,g are enlarged views of the indicated areas in d and f, respectively.
as §2
Nucleotide-independence of liposome tubulation in vitro is also observed for dynamin^16. No noticeable tubule fission or alteration in tubule diameter was found for EHD2 in the presence of ATP. […] Folch liposomes were also tabulated by EHD2. However, with synthetic liposomes containing only 2.5% PIP2 and in the absence of PS, the amount of EHD binding was reduced, and in this less favourable binding condition we only observed tubulation in the presence of ATP-γ-S and ADP but not in the absence of nucleotides (FIG. 7).

[4] = target: T1, isolated EH-domain of EHD2; assay: ITC at 10 °C, peptide against the EH-domain of EHD2

Kd [1]: 130 µM
Molecule: KLNPFGNT (also called side site NPF peptide) [peptide 124-KLNPFGNT from EHD2]

binding result [4]: no binding
Molecule: RMGPFVER (also called top site GPF peptide) [peptide 418-RMGPFVER from EHD2]

binding result [4]: no binding
Molecule: PEKPFRKL (also called side site KPF peptide) [peptide 118-PEKPFRKL from EHD2]

The next lines start with the molecule.

Molecule: EHD2 deletion mutant of the EH-domain (ΔEH)
membrane-stimulated ATPase activity (Q8BH64): did not show any membrane-stimulated ATPase activity

B1: EHD2 T94A (enzyme, mouse, UniProt Q8BH64 1-543, looked up)
chain: MFSWLKKGGARGQRPEAIRTVTSSLKELYRTKLLPLEEHYRFGSFHSPALEDADFDGKPMVLVAGQYSTGKTSFIQYLLEQEVPGSRVGPEPTADCFVAVMHGETEGTVPGNALVVDPEKPFRKLNPFGNTFLNRFMCAQLPNQVLESISIIDTPGILSGAKQRVSRGYDFPAVLRWFAERVDLIILLFDAHKLEISDEFSEAIGALRGHEDKIRVVLNKADMVETQQLMRVYGALMWALGKVVGTPEVLRVYIGSFWSQPLLVPDNRRLFELEEQDLFRDIQGLPRHAALRKLNDLVKRARLVRVHAYIISYLKKEMPTVFGKENKKKQLILKLPVIFAKIQLEHHISPGDFPDCQKMQELLMAHDFTKFHSLKPKLLEALDDMLAQDIAKLMPLLRQEELESVEAGVQGGAFEGTRMGPFVERGPDEAIEDGEEGSEDDAEWVVTKDKSKYDEIFYNLAPADGKLSGSKAKTWMVGTKLPNSVLGRIWKLSDVDRDGMLDDEEFALASHLIEAKLEGHGLPTNLPRRLVPPSKRRQKGSAE
notes: mature; also called T94A mutant
membrane-stimulated ATPase activity (in words) (EHD2): did not show any membrane-stimulated ATPase activity
binding result [2]: binds
distribution of EGFP-tagged protein over-expressed in HeLa cells (HeLa cells; 24 h after transfection, fixed): extensive tubulation with no punctate stained; also recorded: labelled extensive tubular structures with essentially, no punctate staining
dynamics of tubules and puncta by EPI-fluorescence live imaging (HeLa cells; over-expressed 24 h, imaged approximately 30 min): only tubules, and these are mostly static
liposome tubulation / oligomerisation by EM [3]: oligomerised around PS liposomes
